Consider four molecules from patent US20170226192A1.

Test [1] has as its target Ravn pin peptide […] (Marburg virus, strain Ravn). Briefly: pin peptide ELISA, pin D6; overflow value is greater than 3.9. (An ELISA detects its analyte on a solid surface through an enzyme-linked reagent.)
The target of test [2] is Ravn pin peptide … (Marburg virus, strain Ravn). Briefly: pin peptide ELISA, pin D5; overflow value is greater than 3.9.
The target is the same in test [3]. Briefly: pin peptide ELISA, pin D4.
The target is the same in test [4]. Briefly: pin peptide ELISA, pin printed as D6.
Test [5] has the same target. Briefly: pin peptide ELISA, pin printed as D5.
The target is the same in test [6]. Briefly: pin peptide ELISA, pin D5.
Test [7] shares this target. Briefly: pin peptide ELISA, pin D4; overflow value is greater than 3.9.
Test [8] has the same target. Briefly: pin peptide ELISA, pin D6.

B1: CAN30G5 (antibody, V domains shown)
VH: EVQLVESGGGLVQPKGSLKLSCAASGFAFNSYAMHWVCQAPGKGLEWVARIRIKSGNYATSYAGSVTDRFTVSRDDSQNLFYLQMNNLKTEDTAMYYCVREWEGAMDYWGQGTSVTVSS
VL: DIVLTQSPLSLPVSLGDQASISCRSSQSLVHSNGNTYLHWYLQKPGQSPNLLIYKVSNRFSGVPDRFSGSGSGTDFTLKISRVEAEDLGVYFCSQSTHVPWTFGGGTKLEIK
As to B1, the values for the Absorbance (1 hour) in test [1], in test [2] and in test [3] were greater than 3.9, greater than 3.9 and 0.631, respectively.

B2: CAN54G2 (antibody, V domains shown)
VH: QVQLQQSGTELVRPGTSVKISCKASGYDFTNFWLGWIKQRPGHGLEWIGDIYPGGDNTYYNEKFKGKVTLTADKSSNTAYMQFSSLTSEDSAVYFCFMILYTLDYWGQGTSVTVSS
VL: not shown
On to B2, for which the Absorbance (1 hour) in test [4] came to 1.85; in test [5], 2.76.

B3: CAN30G4 (antibody, V domains shown)
VH: EVKLVESGGGLVKSGGSLKLSCAVSGFTFSTYAMSWVRQIPEKRLEWVATISNGGSYIYYSDSVKGRFTISRDNAKNTLYLQMSSLRSEDTAMYYCARHRESYRYDWFAYWGQGTLVTVSA
VL: DVLMTQTPLSLPVSLGDQASISCRSSQNIVHSDGNTYLEWYLQKPGQSPKLLIYKFSNRFSGVPDRFSGSGSGTDFTLKISRVEAEDLGVYYCFQGSHVPPTFGAGTKLELK
Take B3: the Absorbance (1 hour) in test [6] is 1.97; in test [7] it was greater than 3.9.

B4: CAN30G3 (antibody, V domains shown)
VH: QVQLKESGPGLVAPSQSLSITCTVSGFSLTDYGITWIRQPPGKGLEWLGVIWGGGSAYYNLVLKSRLSISKDNSKSQVFLKMNSLQTDDTAMYYCAKHRTLITTAMDYWGQGISVTVSS
VL: DVLMTQTPLSLPVSLGDQASISCRSSQNIVHSNGNTYLEWYLQKSGQSPKLLIYKVSNRFSGVPDRFSGSGSGTDFTLKISRVEAEDLGVYYCFQGSHFPWTFGGGTKLEIK
On to B4, for which the Absorbance (1 hour) in test [8] is 1.12; in test [6] it was 1.84.
